We go through two molecules from paper PMC12691694, “Bacillus velezensis LoaP promotes antitermination by antagonizing NusA”.

This data set deals with T1, NusA (Bacillus velezensis, UniProt A7Z4T1 1-373).
T1 sequence: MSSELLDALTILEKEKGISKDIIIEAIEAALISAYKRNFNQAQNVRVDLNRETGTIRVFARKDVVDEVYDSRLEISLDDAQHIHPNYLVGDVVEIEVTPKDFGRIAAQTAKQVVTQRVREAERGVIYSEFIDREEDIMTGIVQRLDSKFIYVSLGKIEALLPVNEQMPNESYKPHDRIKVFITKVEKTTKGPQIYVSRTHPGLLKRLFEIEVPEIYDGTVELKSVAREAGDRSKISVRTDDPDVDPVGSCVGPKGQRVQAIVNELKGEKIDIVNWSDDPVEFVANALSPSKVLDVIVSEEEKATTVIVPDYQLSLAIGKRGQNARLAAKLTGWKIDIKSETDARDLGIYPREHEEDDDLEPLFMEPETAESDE
The data set is described as follows: DRaCALA filter binding; 50 mM NaH2PO4 pH 7.2, 100 mM NaCl, 0.1 mM EDTA, 1 mM MgCl2, 100 ug/mL BSA, 25 ug/mL total yeast RNA, 2.5 nM labeled RNA, 45 min, room temperature. Conditions: protein: recombinant; tags: N-terminal His10-SUMO removed by bdSENP1; label: 5'-32P; hairpin.

B1: dfnA terminator (structured_RNA)
RNA: GGAAACACAAUGCGUUUGCGAUUUUUAAACCUGUGCUGAAUCGCAAACGCGUUUGUG
As for B1, the binding result is “binds”.
Take GGAAACACAGUUUGCGAUUUUUAAACCUGUGCUGAAUCGCAAACUGUG (structured_RNA) [dfnA* mutant terminator (dfnA mut)]: the binding result is given as “binds”.
